Experimental data published in patent US10421817 (BEIJING MABWORKS BIOTECH, dated 2019).
Numbering of substitutions follows the chain as printed.

B1: 18F2-30-VH5VL0 (antibody, human IgG1, kappa, V domains shown)
VH: QVQLVQSGAEVKKPGASVKVSCKASGYTFTSFWLNWVRQRPGQGLEWIGNIYPSTSYTVYNQKFKDRVTLTVDKSTSTAYMELSSLRSEDTAVYYCTRTWRGNSFDYWGQGTTVTVSS
VL: DIVMTQSPDSLAVSLGERATINCKSSQSLLNSGNQKNYVTWYQQKPGQPPKLLIYWGSTRSTGVPDRFSGSGSGTDFTLTISSLQAEDVAVYYCQNDYTYPFTFGQGTKLEIKR
notes: Humanized, human IgG1/kappa constant regions
B2: 18F2-5VH0VL0 (antibody, human IgG1, kappa, V domains shown)
VH: B1 VH with R40A, I48M, L70M, V72R, K74T, A79V, T97A, Y107L
VL: B1 VL with S26N, S61V, T62R
notes: Humanized, human IgG1/kappa constant regions; also called 18F2-SVH0VL0
B3: 18F2-5VH3VL0 (antibody, human IgG1, kappa, V domains shown)
VH: B1 VH with R40A, K74T, A79V, T97A, Y107L
VL: B1 VL with S26N, S61V, T62R
notes: as for B1
B4: 18F2-5VH4VL0 (antibody, human IgG1, kappa, V domains shown)
VH: B1 VH with A79V, T97A, Y107L
VL: B1 VL with S26N, S61V, T62R
notes: as for B1
B5: 18F2-5VH5VL0 (antibody, human IgG1, kappa, V domains shown)
VH: B1 VH with Y107L
VL: B1 VL with S26N, S61V, T62R
notes: as for B1
B6: 18F2-5VH6VL0 (antibody, human IgG1, kappa, V domains shown)
VH: B1 VH with T76S, R87T, Y107L
VL: B1 VL with S26N, S61V, T62R
notes: as for B1
B7: 18F2-5VH6VL2 (antibody, human IgG1, kappa)
heavy: not shown
light: DIVMTQSPSSLTVSLGEKATINCKSNQSLLNSGNQKNYVTWYQQKPGQPPKLLIYWGSTRVRGVPDRFSGSGSGTDFTLTISSLQAEDLAVYYCQNDYTYPFTFGQGTKLEIKRTVAAPSVFIFPPSDEQLKSGTASVVCLLNNFYPREAKVQWKVDNALQSGNSQESVTEQDSKDSTYSLSSTLTLSKADYEKHKVYACEVTHQGLSSPVTKSFNRGEC
notes: as for B1
B8: 18F2-5VH6VL3 (antibody, human IgG1, kappa)
heavy: not shown
light: B7 light with N22S, Q106S
notes: as for B1
B9: 18F2-5VH7VL2 (antibody, human IgG1, kappa)
heavy: not shown
light: B7 light
notes: as for B1
B10: 18F2-5VH7VL3 (antibody, human IgG1, kappa)
heavy: not shown
light: B7 light with N22S, Q106S
notes: as for B1
B11: 18F2-30-VH2VL0 (antibody, human IgG1, kappa, V domains shown)
VH: B1 VH with R40A, A79V, T97A
VL: B1 VL
notes: as for B1
B12: 18F2-30-VH3VL0 (antibody, human IgG1, kappa, V domains shown)
VH: B1 VH with R40A, K74T, A79V, T97A
VL: B1 VL
notes: as for B1
B13: 18F2-30-VH4VL0 (antibody, human IgG1, kappa, V domains shown)
VH: B1 VH with A79V, T97A
VL: B1 VL
notes: as for B1
B14: 18F2-30-VH6VL0 (antibody, human IgG1, kappa, V domains shown)
VH: B1 VH with T76S, R87T
VL: B1 VL
notes: as for B1
B15: 18F2-30-VH6VL3 (antibody, human IgG1, kappa)
heavy: not shown
light: B7 light with N22S, N26S, V61S, R62T, Q106S
notes: as for B1
B16: 18F2-30-VH7VL0 (antibody, human IgG1, kappa, V domains shown)
VH: B1 VH with R38K, R67K
VL: B1 VL
notes: as for B1
B17: 18F2-35VH2VL0 (antibody, human IgG1, kappa, V domains shown)
VH: B1 VH with R40A, V59I, A79V, T97A
VL: B1 VL with V39L, S61V, T62R
notes: as for B1
B18: 18F2-35VH3VL0 (antibody, human IgG1, kappa, V domains shown)
VH: B1 VH with R40A, V59I, K74T, A79V, T97A
VL: B1 VL with V39L, S61V, T62R
notes: as for B1
B19: 18F2-35VH4VL0 (antibody, human IgG1, kappa, V domains shown)
VH: B1 VH with V59I, A79V, T97A
VL: B1 VL with V39L, S61V, T62R
notes: as for B1
B20: 18F2-35VH5VL0 (antibody, human IgG1, kappa, V domains shown)
VH: B1 VH with V59I
VL: B1 VL with V39L, S61V, T62R
notes: as for B1
B21: 18F2-35VH6VL0 (antibody, human IgG1, kappa, V domains shown)
VH: B1 VH with V59I, T76S, R87T
VL: B1 VL with V39L, S61V, T62R
notes: as for B1
B22: 18F2-35VH7VL0 (antibody, human IgG1, kappa, V domains shown)
VH: B1 VH with R38K, V59I, R67K
VL: B1 VL with V39L, S61V, T62R
notes: as for B1
B23: 18F2-66VH0VL0 (antibody, human IgG1, kappa, V domains shown)
VH: B1 VH with L34I, R40A, I48M, T55A, L70M, V72R, K74T, A79V, T97A, Y107L
VL: B1 VL with G57S, T62F
notes: as for B1
B24: 18F2-66VH2VL0 (antibody, human IgG1, kappa, V domains shown)
VH: B1 VH with L34I, R40A, T55A, A79V, T97A, Y107L
VL: B1 VL with G57S, T62F
notes: as for B1
B25: 18F2-66VH3VL0 (antibody, human IgG1, kappa, V domains shown)
VH: B1 VH with L34I, R40A, T55A, K74T, A79V, T97A, Y107L
VL: B1 VL with G57S, T62F
notes: as for B1
B26: 18F2-66VH4VL0 (antibody, human IgG1, kappa, V domains shown)
VH: B1 VH with L34I, T55A, A79V, T97A, Y107L
VL: B1 VL with G57S, T62F
notes: as for B1
B27: 18F2-66VH5VL0 (antibody, human IgG1, kappa, V domains shown)
VH: B1 VH with L34I, T55A, Y107L
VL: B1 VL with G57S, T62F
notes: as for B1
B28: 18F2-66VH6VL0 (antibody, human IgG1, kappa, V domains shown)
VH: B1 VH with L34I, T55A, T76S, R87T, Y107L
VL: B1 VL with G57S, T62F
notes: as for B1
B29: 18F2-66VH6VL3 (antibody, human IgG1, kappa)
heavy: not shown
light: B7 light with N22S, N26S, G57S, V61S, R62F, Q106S
notes: as for B1
B30: 18F2-66VH7VL3 (antibody, human IgG1, kappa)
heavy: not shown
light: B7 light with N22S, N26S, G57S, V61S, R62F, Q106S
notes: as for B1
B31: 18F2-5 (antibody, human IgG1, kappa, V domains shown)
VH: QVQLQQPGAELVRPGASVKLSCKASGYTFTSFWLNWVKQRPGQGLEWIGNIYPSTSYTVYNQKFKDKATLTVDKSSSTAYMQLSSPTSEDSAVYYCTRTWRGNSFDLWGQGTTLTVSS
VL: DIVMTQSPSSLTVTAGEKVTMSCKSNQSLLNSGNQKNYVTWYQQKPGQPPKLLIYWGSTRVRGVPDRFTGSGSGTDFTLTISSVQAEDLAVYYCQNDYTYPFTFGSGTKLEIKR
B32: 18F2 (antibody, human IgG1, kappa, V domains shown)
VH: B31 VH with L34V, T99S, L107H
VL: B31 VL with N26S
notes: Chimeric full length antibody, mouse variable regions with human IgG1/kappa constant regions; also called clone 18F2; parent clone 18F2
B33: 18F2-30 (antibody, human IgG1, kappa, V domains shown)
VH: B31 VH with L107Y
VL: B31 VL with N26S, V61S, R62T
B34: 18F2-35 (antibody, human IgG1, kappa, V domains shown)
VH: B31 VH with V59I, L107Y
VL: B31 VL with N26S, V39L
B35: 18F2-66 (antibody, human IgG1, kappa, V domains shown)
VH: B31 VH with L34I, T55A
VL: B31 VL with N26S, G57S, V61S, R62F
B36: IMAB362 (antibody, V domains shown)
VH: B31 VH with F32Y, L34I, T55D, V59N, T99S, L107Y
VL: B31 VL with N26S, V39L, G57A, V61E, R62S, T99S

What follows are binders tested against T1, human Claudin 18.1 (human, UniProt P56856 1-261) (assay: FACS on HEK293A/hClaudin 18.1 cells).
T1 construct: Overexpressed on HEK293A cells by lentivirus
T1 sequence (P56856 whole entry): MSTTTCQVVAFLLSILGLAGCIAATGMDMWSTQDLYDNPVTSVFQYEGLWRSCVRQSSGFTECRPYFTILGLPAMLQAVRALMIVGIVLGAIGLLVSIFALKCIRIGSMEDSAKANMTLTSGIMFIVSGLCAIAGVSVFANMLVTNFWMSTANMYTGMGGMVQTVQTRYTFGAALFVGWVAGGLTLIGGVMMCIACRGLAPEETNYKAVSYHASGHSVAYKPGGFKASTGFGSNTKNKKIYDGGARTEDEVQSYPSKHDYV
B1: no binding.
B2: no binding.
B3: no binding.
B4: no binding.
B5: no binding.
B6: no binding.
B7: no binding.
B8: no binding.
B9: no binding.
B10: no binding.
B11: no binding.
B12: no binding.
B13: no binding.
B14: no binding.
B15: no binding.
B16: no binding.
B17: no binding.
B18: no binding.
B19: no binding.
B20: no binding.
B21: no binding.
B22: no binding.
B23: no binding.
B24: no binding.
B25: no binding.
B26: no binding.
B27: no binding.
B28: no binding.
B29: no binding.
B30: no binding.

These binders were tested against T2, human Claudin 18.2 (human) (assay: FACS on HEK-293A cells expressing human Claudin 18.2).
T2 construct: Overexpressed on HEK293A or MC38 cells by lentivirus; endogenous on KATO-III and NUGC-4 cells
With B31 the EC50 was 0.616 nM.
Work on B32 yielded an EC50 of 1.26 nM.
B33 was tested, and the EC50 was 0.562 nM.
In the case of B34, the EC50 is reported as 0.509 nM.
Binder B35 has an EC50 of 0.524 nM.
B36 gave an EC50 of 0.634 nM.
